Positions count from the first letter of the chain named.

First the molecules themselves.
T1: recombinant human TREM2 ECD (human, UniProt Q9NZC2 19-172)
T1 construct: TREM2' / 'TREM2 ECD'; also called hTREM2; Human TREM2 (Biacore)
T1 sequence: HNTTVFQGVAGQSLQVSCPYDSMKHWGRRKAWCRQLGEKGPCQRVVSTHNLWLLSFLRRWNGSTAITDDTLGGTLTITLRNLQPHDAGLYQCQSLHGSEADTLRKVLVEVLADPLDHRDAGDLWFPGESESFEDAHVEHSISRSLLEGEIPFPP

T2: recombinant cynomolgus TREM2 ECD (cynomolgus, UniProt A0A2K5UY34 49-204)
T2 construct: extracellular domain; also called Cyno TREM2
T2 sequence: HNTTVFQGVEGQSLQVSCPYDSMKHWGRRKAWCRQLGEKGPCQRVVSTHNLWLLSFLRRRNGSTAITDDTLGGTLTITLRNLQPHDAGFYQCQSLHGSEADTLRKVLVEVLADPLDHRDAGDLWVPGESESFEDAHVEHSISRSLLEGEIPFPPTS

T3: human TREM2 expressed on HEK293-H6 cells (human, UniProt Q9NZC2 19-230)
T3 construct: Wild type human TREM2 stably co-expressed with DAP12 in HEK 293 cells (clone HEK293-H6); also called Human TREM2 HEK; TREM2 expressed by HEK293-H6 cells
T3 sequence: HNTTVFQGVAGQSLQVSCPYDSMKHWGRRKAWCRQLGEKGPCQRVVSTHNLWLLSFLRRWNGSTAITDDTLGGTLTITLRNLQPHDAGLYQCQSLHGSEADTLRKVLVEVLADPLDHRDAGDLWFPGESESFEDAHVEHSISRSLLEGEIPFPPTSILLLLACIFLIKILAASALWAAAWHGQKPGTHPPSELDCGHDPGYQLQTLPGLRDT

B1: ATV:TREM2 #5 (antibody, human IgG1, kappa, L234A L235A)
heavy 1: EVQLVESGGGLVQPGGSLRLSCAASGFTFTDFYMSWVRQAPGKGLEWVSVIRNKANAYTAGYNPSVKGRFTISRDNSKNTLYLQMNSLRAEDTAVYYCARLTYGFDYWGQGTLVTVSSASTKGPSVFPLAPSSKSTSGGTAALGCLVKDYFPEPVTVSWNSGALTSGVHTFPAVLQSSGLYSLSSVVTVPSSSLGTQTYICNVNHKPSNTKVDKKVEPKSCDKTHTCPPCPAPEAAGGPSVFLFPPKPKDTLMISRTPEVTCVVVDVSHEDPEVKFNWYVDGVEVHNAKTKPREEQYNSTYRVVSVLTVLHQDWLNGKEYKCKVSNKALPAPIEKTISKAKGQPREPQVYTLPPSRDELTKNQVSLWCLVKGFYPSDIAVEWESYGTEWSNYKTTPPVLDSDGSFFLYSKLTVSKEEWQQGFVFSCSVLHEALHSHYTQKSLSLSPGK
heavy 2: EVQLVESGGGLVQPGGSLRLSCAASGFTFTDFYMSWVRQAPGKGLEWVSVIRNKANAYTAGYNPSVKGRFTISRDNSKNTLYLQMNSLRAEDTAVYYCARLTYGFDYWGQGTLVTVSSASTKGPSVFPLAPSSKSTSGGTAALGCLVKDYFPEPVTVSWNSGALTSGVHTFPAVLQSSGLYSLSSVVTVPSSSLGTQTYICNVNHKPSNTKVDKKVEPKSCDKTHTCPPCPAPEAAGGPSVFLFPPKPKDTLMISRTPEVTCVVVDVSHEDPEVKFNWYVDGVEVHNAKTKPREEQYNSTYRVVSVLTVLHQDWLNGKEYKCKVSNKALPAPIEKTISKAKGQPREPQVYTLPPSRDELTKNQVSLSCAVKGFYPSDIAVEWESNGQPENNYKTTPPVLDSDGSFFLVSKLTVDKSRWQQGNVFSCSVLHEALHSHYTQKSLSLSPGK
light: DIVMTQTPLSLPVTPGEPASISCQSSKSLLHSTGKTYLNWYLQKPGQSPQLLIYWMSTRASGVPDRFSGSGSGTDFTLKISRVEAEDVGVYYCQQFLEYPFTFGQGTKVEIKRTVAAPSVFIFPPSDEQLKSGTASVVCLLNNFYPREAKVQWKVDNALQSGNSQESVTEQDSKDSTYSLSSTLTLSKADYEKHKVYACEVTHQGLSSPVTKSFNRGEC
notes: Knob/hole heterodimeric IgG1; the second carries hole, LALA and LS; also called anti-TREM2/CH35.23.4
B2: ATV:TREM2 #4 (antibody, human IgG1, kappa, L234A L235A)
heavy 1: B1 heavy 1 with S390V, S414T
heavy 2: not shown
light: B1 light
notes: Knob/hole heterodimeric IgG1; the second carries hole and LS only, without LALA; also called CH3C.35.23.3 cisLALA
B3: ATV:TREM2 #2 (antibody, human IgG1, kappa, L234A L235A)
heavy 1: B1 heavy 1 with Y385F
heavy 2: B1 heavy 2
light: B1 light
notes: Knob/hole heterodimeric IgG1; the second carries hole, LALA and LS; also called anti-TREM2/CH35.23.1.1
B4: ATV:TREM2 #3 (antibody, human IgG1, kappa, L234A L235A)
heavy 1: B1 heavy 1 with S390V, S414T
heavy 2: B1 heavy 2
light: B1 light
notes: Knob/hole heterodimeric IgG1; the second carries hole, LALA and LS; also called anti-TREM2/CH35.23.3
B5: TREM2 Ab (antibody, human IgG1, kappa, L234A L235A, V domains shown)
VH: EVQLVESGGGLVQPGGSLRLSCAASGFTFTDFYMSWVRQAPGKGLEWVSVIRNKANAYTAGYNPSVKGRFTISRDNSKNTLYLQMNSLRAEDTAVYYCARLTYGFDYWGQGTLVTVSS
VL: DIVMTQTPLSLPVTPGEPASISCQSSKSLLHSTGKTYLNWYLQKPGQSPQLLIYWMSTRASGVPDRFSGSGSGTDFTLKISRVEAEDVGVYYCQQFLEYPFTFGQGTKVEIKR
notes: also called corresponding anti-TREM2 antibody; TREM2 IgG

One experiment concerns the target T1, recombinant human TREM2 ECD. As to the kind of experiment: SPR (Biacore), antibody captured by anti-human Fab, TREM2 ECD as analyte. As to the method:
(§1) Surface plasmon resonance (Biacore™ 8K instrument) was used to measure anti-TREM2 antibody affinities for human and cynomolgus TREM2 ECD. Anti-TREM2 antibodies were captured using Human Fab Capture Kit (GE Healthcare Life Sciences, Catalog No. 28958325) on a Biacore Series S CM5 sensor chip (GE Healthcare Life Sciences, Catalog No. 29149604). Serial 3-fold dilutions of recombinant human or cynomolgus TREM2 were injected at a flow rate of 30 μL/min. Antibody binding was monitored for 300 seconds, followed by monitoring of antibody dissociation for 600+ seconds in HBS-EP+ running buffer (GE Healthcare Life Sciences, Catalog No. BR100669). The binding response was corrected by subtracting the RU value from a blank flow cell. A 1:1 Languir model of simultaneous fitting of kₒₙ and koff was used for kinetics analysis. KD binding values were calculated from kₒₙ and koff.
(In general: Surface plasmon resonance follows binding to a sensor surface in real time, without labels.)
The Kd is the constant that tells how readily two partners part at equilibrium. On to B1, for which the Kd came out at 5.7 nM.

As to B2, the Kd worked out at 2 nM.

As for B3, the Kd is 5.4 nM.

Consider B4, for which the Kd turned out to be 3 nM.

The next experiment addresses T2, recombinant cynomolgus TREM2 ECD. As to the kind of experiment: SPR (Biacore), antibody captured by anti-human Fab, cyno TREM2 ECD as analyte. As to the method: as §1
On to B1, for which the Kd was found to be 2.4 nM.

Take B2: the Kd came to 2.2 nM.

For the molecule B3, the Kd came to 2.4 nM.

For the molecule B4, the Kd came to 2.2 nM.

The target in a further experiment is T4, human transferrin receptor (human, UniProt P02786 89-760, limits assumed).
T4 construct: also called Human TfR; TfR
T4 sequence (P02786 89-760 limits assumed): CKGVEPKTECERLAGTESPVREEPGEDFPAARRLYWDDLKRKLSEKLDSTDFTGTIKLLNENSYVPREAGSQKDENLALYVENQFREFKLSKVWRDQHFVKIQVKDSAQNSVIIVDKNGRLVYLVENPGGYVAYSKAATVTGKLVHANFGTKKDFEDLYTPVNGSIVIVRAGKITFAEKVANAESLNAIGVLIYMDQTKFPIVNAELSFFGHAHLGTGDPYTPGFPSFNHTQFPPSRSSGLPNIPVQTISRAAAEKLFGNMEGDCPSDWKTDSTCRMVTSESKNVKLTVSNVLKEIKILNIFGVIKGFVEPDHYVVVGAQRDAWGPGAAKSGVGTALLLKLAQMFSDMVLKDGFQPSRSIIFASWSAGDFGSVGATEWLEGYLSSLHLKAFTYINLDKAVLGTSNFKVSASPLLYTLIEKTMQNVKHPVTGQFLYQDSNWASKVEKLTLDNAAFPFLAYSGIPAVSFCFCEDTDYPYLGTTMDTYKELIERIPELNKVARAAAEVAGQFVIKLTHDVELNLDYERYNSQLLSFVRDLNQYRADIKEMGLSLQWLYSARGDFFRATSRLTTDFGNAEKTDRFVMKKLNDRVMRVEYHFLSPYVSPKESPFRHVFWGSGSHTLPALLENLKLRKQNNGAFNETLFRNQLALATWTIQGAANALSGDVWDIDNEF
As to the kind of experiment: SPR (Biacore), antibody captured by anti-human Fab on CM5 chip, human TfR as analyte, 1:1 model. As to the method: Binding of anti-TREM2 protein to human transferrin receptor was determined as follows: anti-human-Fab was immobilized on a CM5 chip, and the anti-TREM2 protein was captured. Full-length human TfR or human TfR apical domain at serial dilution (e.g., concentrations of 1-1,000 nM) was flowed over the chip (180 second association time) and then allowed to dissociate. Fitting was performed using a 1:1 binding model.
With B1, the Kd turned out to be 620 nM.

Take B3: the Kd is 650 nM.

In turn, B4 came in with a dissociation constant Kd of 1400 nM.

Another experiment concerns the target T3, human TREM2 expressed on HEK293-H6 cells. The experiment in a line: flow cytometry on human TREM2-expressing HEK cells. As to the method:
(§2) After incubation, the cells were centrifuged and washed in FACS buffer (PBS+0.5% BSA) twice. Mixed cells were resuspended in FACS buffer with human Trustain FcX solution (Biolegend, Catalog No. 422302) at a density of 10⁶/mL per cell line. The mixed cell lines were seeded at 200,000 cells per well in a 96-well round-bottom plate and incubated for 20 minutes at room temperature. After incubation, the cells were centrifuged and incubated with a dose titration of anti-TREM2 antibodies for 45 minutes on ice. After incubation, the cells were centrifuged and washed with FACS buffer three times. The cells were then incubated with secondary antibody (Alexa Fluor 647 AffiniPure F(ab′)2 Fragment Goat Anti-human IgG(H+L), Jackson ImmunoResearch Laboratories, Catalog No. 109-606-088, 1:800 dilution) for 30 minutes on ice. After incubation, the cells were washed with FACS buffer three times, resuspended in 100 μL of FACS buffer, and analyzed by flow cytometry (BD FACSCanto II, San Jose, Calif.), for which 30,000 events were obtained for each sample. Mean fluorescence intensity per cells were calculated by FlowJo software and used for generating dose response binding curve.
On the technique in general: Flow cytometry measures light scatter and fluorescence of single cells or particles in a stream.
As a reminder, the EC50 is the concentration needed to bring the measured effect to its halfway point. A higher EC50 goes with weaker potency. In turn, B1 had an EC50 of 3.6 nM.

B3 gave an EC50 of 4.9 nM.

In turn, B4 yielded an EC50 of 4.6 nM.

A further experiment has the same target. As to the kind of experiment: flow cytometry, dose titration on HEK 293 cells expressing human TREM2 (TREM2-expressing HEK). As to the method:
as §2
Usually EC50 (read off the curve) stands for the midpoint of the concentration-response curve. In the case of B5, the “EC50 (read off the curve)” value is about 0.4 nM.

The values above are taken from patent US20220177576A1 (DENALI THERAPEUTICS, published 2022).
